This data set has as its system P49302. As to the kind of experiment: […] (DSC); […] (40 mM tris, pH 8.0, 0.5 M ([…]; 1 mg/mL; […]) dissociation. Conditions: other: differential scanning calorimetry (DSC). A general note: In DSC, transitions show as peaks or steps in heat flow.

Consider “unmodified murine polyomavirus VP1 capsomere, as used for DSC”, for which the dHm of capsomere dissociation (first DSC endotherm) turned out to be 87.6 kcal/mol.

The values above are taken from PMC4162605.
